{
  "source": "paper PMC3875388",
  "binders": {"B1": {"name": "Bax DRE-like (dsDNA)", "DNA 1": "GATCCAGAAAGCCGGGCGTGGTGGCGCACGCCTTTAATCCCA", "DNA 2": "GATCTGGGATTAAAGGCGTGCGCCACCACGCCCGGCTTTCTG"}},
  "target": "AhR;ARNT (mouse (C57BL/6);mouse (C57BL/6), UniProt P30561;P53762 1-848;1-791, |)",
  "sequence (P30561 whole entry, chain 1 of 2)": "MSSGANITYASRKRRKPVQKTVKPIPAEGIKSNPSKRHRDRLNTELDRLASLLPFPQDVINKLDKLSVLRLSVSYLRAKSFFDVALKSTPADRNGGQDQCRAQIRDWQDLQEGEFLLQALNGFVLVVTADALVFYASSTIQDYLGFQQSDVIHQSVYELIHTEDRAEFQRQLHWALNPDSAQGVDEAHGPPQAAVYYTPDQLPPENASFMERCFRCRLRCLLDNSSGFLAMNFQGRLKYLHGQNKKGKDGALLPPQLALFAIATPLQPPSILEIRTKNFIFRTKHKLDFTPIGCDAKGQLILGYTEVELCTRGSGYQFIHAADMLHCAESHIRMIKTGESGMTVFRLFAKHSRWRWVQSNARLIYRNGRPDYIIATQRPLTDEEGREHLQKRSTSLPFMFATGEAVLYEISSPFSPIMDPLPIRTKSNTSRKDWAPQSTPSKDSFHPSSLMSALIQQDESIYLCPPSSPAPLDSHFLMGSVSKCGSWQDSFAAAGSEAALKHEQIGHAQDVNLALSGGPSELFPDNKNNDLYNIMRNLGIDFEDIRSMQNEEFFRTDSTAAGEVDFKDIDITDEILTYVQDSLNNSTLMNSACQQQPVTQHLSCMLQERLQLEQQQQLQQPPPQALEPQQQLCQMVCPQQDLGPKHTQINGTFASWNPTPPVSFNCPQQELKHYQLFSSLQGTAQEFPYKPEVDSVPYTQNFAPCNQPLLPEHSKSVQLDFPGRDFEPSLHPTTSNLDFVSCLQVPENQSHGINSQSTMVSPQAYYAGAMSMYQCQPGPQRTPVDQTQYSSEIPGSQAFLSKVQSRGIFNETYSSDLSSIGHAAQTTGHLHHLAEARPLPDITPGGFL",
  "sequence (P53762 whole entry, chain 2 of 2)": "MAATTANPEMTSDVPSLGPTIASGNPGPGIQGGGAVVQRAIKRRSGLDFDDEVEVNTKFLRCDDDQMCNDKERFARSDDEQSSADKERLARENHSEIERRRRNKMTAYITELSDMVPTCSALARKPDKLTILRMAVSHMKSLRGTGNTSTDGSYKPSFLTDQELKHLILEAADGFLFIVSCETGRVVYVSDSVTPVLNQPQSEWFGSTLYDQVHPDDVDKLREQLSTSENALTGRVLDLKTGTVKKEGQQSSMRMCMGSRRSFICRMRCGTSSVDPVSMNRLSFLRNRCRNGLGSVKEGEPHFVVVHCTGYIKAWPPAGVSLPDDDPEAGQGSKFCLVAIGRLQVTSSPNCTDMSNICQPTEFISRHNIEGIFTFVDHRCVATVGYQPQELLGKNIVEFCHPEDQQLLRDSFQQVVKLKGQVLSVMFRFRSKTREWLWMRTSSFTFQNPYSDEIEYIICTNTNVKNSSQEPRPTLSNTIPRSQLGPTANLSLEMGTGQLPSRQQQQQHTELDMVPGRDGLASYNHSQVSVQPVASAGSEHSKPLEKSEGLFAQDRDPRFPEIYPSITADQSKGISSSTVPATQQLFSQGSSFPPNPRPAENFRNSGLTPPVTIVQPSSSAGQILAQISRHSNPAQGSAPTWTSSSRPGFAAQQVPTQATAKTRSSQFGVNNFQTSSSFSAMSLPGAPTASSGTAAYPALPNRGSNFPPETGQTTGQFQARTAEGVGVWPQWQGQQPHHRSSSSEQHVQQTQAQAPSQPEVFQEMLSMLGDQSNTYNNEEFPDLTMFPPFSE",
  "experiment": "EMSA",
  "data": [
    {"binder": "B1", "values": [
      {"measurement": "binding result", "value": "no binding"}
    ]}
  ]
}
